According to patent US20250326867A1, “De novo designed chlorophyll special pair proteins” (University of Washington, priority 2024, published 2025):

B1: SP1: de novo designed chlorophyll special pair protein, C2 homodimer (protein)
chain: GGDSRELIARYQILLAELAAIRADIAAERTGDPYVRKLARELKRLAQEAAEEVKRDPSSSDVNMALLLILLMIELAVRALEAAERTGDPEVRELAAELVWLAVEAAEEVQRNPSSSDVWLALHLIMLAIWAAVAALEAAERTGDPEVRELARELVRLAVEAAEEVQRNPSSKEVYMALLLILIAILEAVLSLLRAERSGDPEKREKARERVREAVERAEEVQR
modifications: homodimer; VARIANT 1..2 optionally absent
notes: de novo designed chlorophyll special pair protein, C2 homodimer
B2: SP3: de novo designed chlorophyll special pair protein, C2 homodimer (protein)
chain: SGSSEELARESAEAAWRLAQAGTRLMLAWIRGDLKEIAEALIELARAVQELARVAKEYGNDELAKTAALLAAHVAMLAILVLIRAIKEGDDEVRELAKTAIKLASTAAKIVLDALPTAEEVRQITLLAKLAEEAADKKNEDSALAVGIAAAAVLLALLALEAAQKAGIEEAEKGARLLLKLAMDAARKKNPEEALAVFNAALDVSIALKLLQSAKRAGSEETRKLAEEMLRQALERARK
modifications: homodimer; VARIANT 1..4 optionally absent
notes: as for B1
B3: JD (designed binder)
chain: SGSSDEEYARMSAELAEEAAKEALEQAKREGDEDARRVAEELEKQAEEARRKKDFDLANLVLMAAIILLLALIILELAKKAGNEQMEASGLSLLATAALLAAAGGENSEDARKALEAALRLAERATEVLEKIAKKGETALEKAIAAGTLVMLIQIIIQIAELLSKLGDTEEAKKVLDIAIELIKRVTEILERIAKKADTDILAQAAAGHLIYLIQLLMQISILLRRLGNIDEAFKVLEEARELAERVRELLERIAKNSDK
notes: Designed homodimer subunit, after TEV cleavage
B4: SP2: de novo designed chlorophyll special pair protein, C2 homodimer (protein)
chain: SGSGSSDEEFKFLATEAKMLITAAERLAGTDPELQEMVALIKKELEQAERTFRNGDKSEAQRQLEFVLTAARAVMNVAAAANAAGTDPELIEMVLRILKQLKEAIRTFQNGDQEEAETQLRFVLRAAIAVAVVAAALVLAGTDPELQEMVKQILEELKQAIETFARGDKEKALTQLLFVAWAAHAVAMIAAAANLAGTDPRLQQQVKEILEKLKEAIETFQKGDEEQAFRQLAEVLAEAALVALRAALTN
modifications: homodimer; VARIANT 1..6 optionally absent; VARIANT 33 optionally absent; VARIANT 89..100 optionally absent; VARIANT 111..115 optionally absent; VARIANT 151..169 optionally absent; VARIANT 197..199 optionally absent
notes: as for B1
B5: JE (designed binder)
chain: SGSGSSDELAALFLIISAKSQAWQAQSAAERTGDPRVRELARELKRLAQEAAEEVKRDPSSSEVNKNLQLISMAIALAVLALQLARKAGDEEARDIAREAVEVAVRAAQLILEGRDEQRAQTLFLIAHALLMAVMAARLGNSEVAELAVKVLRLAKELEKLLPSEIALFVVLMIALAALSAAMAASGGQEDYARDALRRLEEAIREAEENRSKESLEKVIEEAIEAMLQANRAQTGG
notes: as for B3

Legend:
[1] = ZnPPaM binding titration monitored by UV/vis absorbance; conditions: absorption titration
Description: FIG. 9. SP2-ZnPPaM binding titration monitored by UV/vis absorbance. (a) UV/vis titration of ZnPPaM into a solution of 20 μM SP2 dimer ([…] of SP2 monomer) in 150 mM NaCl, and 10 mM Tris at pH 8. Samples were prepared separately with 0.25 to 4 equivalents (eq.) of ZnPPaM per SP2 protein dimer (2.0 eq. ZnPPaM would be a stoichiometric amount). The y-axis is the molar extinction coefficient, &, or OD divided by ZnPPaM concentration. ZnPPaM was added to protein samples from a DMSO stock solution. Samples were incubated overnight for 20 hours at 4° C. before measurement at room temperature. (b) The same data as in panel (a) zoomed in on the Qy region. Arrows indicate the direction & changes as a function of increasing ZnPPaM concentration. (c) Fitted spectra and (d) species concentration vs. molar ratio of ligand to protein from fitting of the absorbance spectra in panels (a) and (b). During fitting, only the P+L→PL and PL+L→PL2 reactions were considered, and ZnPPaM aggregation was disregarded. (P represents SP2 dimer protein and L represents ZnPPaM ligand). Curve fitting gives dissociation constants (KDs) of 110 nM and 2.0 μM for KD1 and KD2, respectively. Fittings were performed with an algorithm that combines singular value decomposition and least squares regression, as implemented in ReactLab™ Equilibria. (e) Full spectra and (f) the Qy region of a second titration with SP2 dimer protein concentration held at 2.0 μM. At 2.0 μM protein, the intensities of the spectral features at 669 and 692 nm depend upon the molar ratio of protein to ZnPPaM in a manner similar to the 20 μM protein titration shown in panels (a) and (b).
(§1) At longer wavelengths in the UV/visible/near-infrared (UV/vis/NIR), CD spectra can serve as a convenient probe of excitonic interactions between Chls. […] When Chl dimers are arranged in chiral protein environments, however, excitonic interactions can produce delocalized transitions with chiral character, yielding CD signals that are stronger and conservative (i.e., composed of a bisignate doublet that integrates to zero). […] Curve fitting of the CD titrations yields SP2-ZnPPaM dissociation constants (KDs) of 300 nM for KD1 and 2.5 μM for KD2, and SP3-ZnPPaM KDs of 800 nM for KD1 and 1.0 μM for KD2 (data not shown). Due to the lower CD signal of the SP1-ZnPPaM complex, we instead used absorbance and fluorescence to measure the SP1-ZnPPaM interaction. Absorption titrations yielded curve fits with KD1 and KD2 values of 290 nM and 430 nM for SP1, 110 nM and 2.0 μM for SP2, and 350 nM and 940 nM for SP3, respectively (FIG. 9).
Protein-chlorophyll sample preparation: Zn pheophorbide a methyl ester (ZnPPaM) was purchased from Frontier Scientific, Inc. ZnPPaM stock solutions were prepared in dimethyl sulfoxide (DMSO) or methanol to concentrations between 200 μM and 1 mM. ZnPPaM concentrations were determined using mass measurements and by using the known absorptivity of Zn pheophytin a, which has a similar absorbance spectrum and an extinction coefficient €659 nm of 77,300 M^−1 cm^−1 in 80% acetone/20% deionized water (Jones et al. 1976). Ultraviolet/visible (UV/vis) absorbance spectra were collected using a V-750 spectrophotometer with a 1 nm bandwidth and 400 nm/min scanning speed. Protein-ZnPPaM complexes were prepared by slowly adding freshly-prepared ZnPPaM stock solution to protein solution in aqueous buffer at room temperature and incubating samples for several hours. Unbound ZnPPaM was removed by centrifugation to pellet precipitated ZnPPaM, sterile filtration using a 0.22 μm syringe filter, and/or running a PD-10 desalting column purification (Sephadex™ G-25 M resin, Cytiva Life Sciences).

[2] = ZnPPaM fluorescence titration, 1:1 binding model; conditions: 1:1 binding model of protein monomer to ZnPPaM, approximates average of KD1 and KD2, read-out: KD estimate
Source text: as §1

[3] = ZnPPaM binding titration monitored by CD in the Qy region; conditions: curve fitting
Source text: as §1
Circular Dichroism (CD) spectroscopy: CD spectra were collected using a J-1500 spectrophotometer. For protein secondary structure assays, spectra were measured on samples of 0.2-0.4 mg/mL protein in 1 mm quartz cuvettes from 260 to 190 nm with a 1 nm bandwidth, 1 nm data interval, data integration time (DIT) of 1 second, and scanning speed of 50 nm/min. Thermal melts were monitored at 222 nm from 2 to 98° C. with a 2 nm bandwidth and 8 second DIT. UV/vis/near-infrared (NIR) CD transitions of protein-bound Chls were examined in the 800-300 nm region in 1 cm quartz cuvettes as averages of 10 scans using a 3 nm bandwidth, 1 nm data interval, DIT of 4 seconds, and scanning speed of 50 nm/min unless otherwise noted. UV/vis/NIR CD spectra shown in FIG. 2 were collected after sterile filtering with 0.22 μm filter and PD-10 desalting column purification (Sephadex™ G-25 M resin, Cytiva Life Sciences). Each spectrum represents the average of two independent sample preparations. Samples contained 8-15 μM protein (monomer concentration) with equimolar ZnPPaM, 150 mM NaCl, and 10 mM Tris buffer at pH 8. ZnPPaM dry powder was dissolved in methanol stock solutions immediately before adding to protein solutions. Samples were allowed to incubate for 8-16 hours at room temperature prior to measuring spectra.

[4] = target: the molecule itself; assay: size-exclusion chromatography, self-association (homodimer)
Description: FIG. 7. Size exclusion chromatography (SEC) traces of purified SP apo-proteins. Proteins were injected as 0.5 mL aliquots onto a Superdex™ 200 Increase 10/300 GL column (Cytiva Life Sciences). The narrow, isolated peaks indicate that the samples contain monodisperse protein. Running buffer was 150 mM NaCl, 10 mM Tris at pH 8. Proteins were purified by Ni-NTA and one round of SEC prior to collecting the data shown.
Proteins were purified by Ni-NTA and size-exclusion chromatography (SEC) (FIG. 7). […] A slightly lower predicted radius of gyration (Rg) value compared to experimental SAXS data is likely due to a dense hydration shell around the highly charged SP proteins (Svergun et al. 1998; Kim et al. 2016). The far ultraviolet (UV) circular dichroism (CD) spectra of three SP proteins that expressed in high yield (≥140 mg/L) show the proteins are highly α-helical with and without the synthetic Chl a derivative, Zn pheophorbide a methyl ester (ZnPPaM). Thermal denaturation curves monitored by the CD signal at 222 nm indicate that all three proteins are highly thermostable in the apo- and holo-states (FIG. 2).

[5] = P+L→PL, 150 mM NaCl, 10 mM Tris pH 8, read-out: dissociation constant KD1
[6] = PL+L→PL2, read-out: dissociation constant KD2
[7] = first ZnPPaM binding (data not shown), read-out: dissociation constant KD1
[8] = second ZnPPaM binding (data not shown), read-out: dissociation constant KD2

Molecule | Kd [1, 5] [nM] | Kd [1, 6] [nM] | Kd [2] [nM] | Kd [3, 7] [nM] | Kd [3, 8] [nM] | binding result [4] | Kd ([1]; PL+L→PL2, 150 mM NaCl, 10 mM Tris pH 8, read-out: dissociation constant KD2) [nM]
B1 | 290 | 430 | 660 |  |  |  | 
B2 | 350 | 940 | 120 | 800 | 1000 |  | 
B3 |  |  |  |  |  | binds | 
B4 | 110 |  | 480 | 300 | 2500 |  | 2000
B5 |  |  |  |  |  | binds | 
